Our source for the protein production values is a protein production outcome set (Wang et al. 2014).

The data set can be described thus: label from the status in PepcDB records.
For “VSEEEIRMLVAESHEAGVIDAHERDMMNRVMRLGDRTADSLMTPRNRIAWLDANAEPERNLHVMREHEFSRYPVYRGSDQDIAGVLEVKSLVTRMDGHGAQLFQNLRDTLFVSESTHAMKLLEIFREEQQSMALVVDEYGEIRGLVTISDLMGAVVGRLQSVENTDD”, the protein production entry is “failed”.

In the case of “VTSDNAAFEGTFKEMFRRHAAGVAIITVNYNGTPYGFTATSVASLSAQPPRFTFNMARSSSSWPAIANTTHIGVHMLGLDNQELADRFARTKNRFEGDHWELGPYEVPILKDVAGWLIGKIQMRLSFENNAVVVVEVVEGQVGEDGTPLLYHSGAYSQPVPLDYEI”, the protein production entry is “not failed”. With “VWAHYEEQPVEEVMPVLEEKERSASYKPVFVTEITDDLHFYVQDVETGTQLEKLMENMRNDIASHPPVEGSYAPRRGEFCIAKFVDGEWYRARVEKVESPAKIHVFYIDYGNREVLPSTRLGTLSPAFSTRVLPAQATEYAFAFIQVPQDDDARTDAVDSVVRDIQNTQCLLNVEHLSAGCPHVTLQFADSKGDVGLGLVKEGLVMVEVRKEKQFQKVITEYLNAQESAKSARLNLWRYGDFRADDADEFGYSR”, the protein production entry is reported as “failed”. As for “VWEFYMPTDVFFGEKILEKRGNIIDLLGKRALVVTGKSSSKKNGSLDDLKKLLDETEISYEIFDEVEENPSFDNVMKAVERYRNDSFDFVVGLGGGSPMDFAKAVAVLLKEKDLSVEDLYDREKVKHWLPVVEIPTTAGTGSEVTPYSILTDPEGNKRGCTLMFPVYAFLDPRYTYSMSDELTLSTGVDALSHAVEGYLSRKSTPPSDALAIEAMKIIHRNLPKAIEGNREARKKMFVASCLAGMVIAQTGTTLAHALGYPLTTEKGIKHGKATGMVLPFVMEVMKEEIPEKVDTVNHIFGGSLLKFLKELGLYEKVAVSSEELEKWVEKGSRAKHLKNTPGTFTPEKIRNIYREALGV”, the protein production entry is on record as “not failed”. Under “VYGSEVESKIIEFTIVGADEIIAEKLGISVGDFVYKIIRLRIIHSIPTIMEHTWMPIAVIPGVEASVLEESIYSYIQNKLGLKVGTSVVRVKGIRPDDKEKQFMNLTNQDFLMRVEQVAYLTDGRTFEYSYADHLPETFEFETVITAKSYKEA” stands “not failed”; under “WMVQDSVGSGAALASLEGEETGRLWLAAQPEHGFQTLQGLAYALAREVRRLQPDSPYRLAGKGVLGALAYEVGLQLRGMGQTVACVALEGAPAWVRQSEALAVERSQASLPAWLRRCLSSYVPEPGDFPLQPTNMPASAEAFWRALG”, “failed”; under “WQWDLATNKFIYSDNQHRLLGVERDSFESSNDAFINFVHPEDRHVIKNGERMVLDEQQSSVAFFRVIRKDGQMRYFKSIGKLLTDSSGNKILIGINNDITEEH”, “failed”.

As to “WRQRDEAEFTGVDDIPVRFVRFRAQHHDRVVVICPGRIESYVKYAELAYDLFHLGFDVLIIDHRGQGRSGRLLADPHLGHVNRFNDYVDDLAAFWQQEVQPGPWRKRYILAHSMGGAISTLFLQRHPGVCDAIALTAPMFGIVIRMPSFMARQILNWAEAHPRFRDGYAIGTGRWRALPFAINVLTHSRQRYRRNLRFYADDPTIRVGGPTYHWVRESILAGEQVLAGAGDDATPTLLLQAEEERVVDNRMHDRFCELRTAAGHPVEGGRPLVIKGAYHEILFEKDAMRSVALHAIVDFFNRHN”, the protein production result is given as “failed”. As for “WWNWKGHEVHLDCFRNEKAPVKVILLHGVGTNGRQMSMILGGPLSKDGFETIAIDMPTYGVTKVKKGSVVKYDDWVDLACDYIDYEQQRDDRPIVLYGLSAGGMETYHVAAKNKKVKGIIGMTFLDQKNQQVRDETAKNLVMSRVGIPMAGIACNIGLENFKMKMSTASKMSALCNNEKVMEIFNRDKTSAANKASMRFLDSYGNYQPAMEPEDFDVCPILLTQPEQDKWTPLHLSTPFLNKIKKVDVKIVMLENGGHYPVEQPALDQMHDAIVEFIYKVTK”, the protein production entry is reported as “failed”. Under “XRKPILAALTLAGLGLAQEFITIGSGSTTGVYFPVATGIAKLVNDANVGIRANARSTGGSVANINAINAGEFEXALAQNDIAYYAYQGCCIPAFEGKPVKTIRALAALYPEVVHVVARKDAGIRTVADLKGKRVVVGDVGSGTEQNARQILEAYGLTFDDLGQAIRVSASQGIQLXQDKRADALFYTVGLGASAIQQLALTTPIALVAVDLNRIQAIAKKYPFYVGFNIPGGTYKGVDVTTPTVAVQAXLIASERLSEETVYKFXKAVFGNLEAFKKIHPNLERFFGLEKAVKGLPIPLHPGAERFYKEAGVLK” stands “not failed”; under “YIGLVNSFAQKKKLSVNYEQCEPNSELPQRFICKCKIGQTMYGTGSGVTKQEAKQLAAKEAYQKLLKSPPKTAGT”, “not failed”. Under “YPLRKTQAVQSTQFDSRHSFVTKLKPYADKAARMLGVDSSLLIAQAALETGWGQKMVKNARGNSNNLFNIKADRSWQGDKVATQTLEYHNNVPVVEKAAFRSYASFDESFNDYVRFLENNPRYTNALDHGGNSERFIHGIHRAGYATDPQYADKVLRVKAQIDQMNL” stands “failed”. As for “YRQSQSRAARLRLLVDTGQELIQLPPEAMRKCVLQRACAFVAMDHGLLLEWGADNGVQTTARHGSKERLSTLETTADPLAIGPQWLERPGTHLPCVLLLPLRGADEGSFGTLVLANSVAISAPDGEDIESLQLLATLLAAHLENNRLLEALVARDRT”, the protein production result is “not failed”. With “YWGPLDVGEAKSLPGMEDPKLVYIPSIAPSNMVLYRGDKYSELDGKILVGALKLTHINVVGINDGKLTESQRLLEKLGERIRDITISPDGYIYFSTDSGKIFRLTEQ” the entry was “failed”.

In the case of “YYNPVRYPERTKERRDLVLRLLMQQNMLTSQQYEQAVSRPLDTQSKPRIASRQPAYFQQLNIELKEKVGDRFKAETGL”, the protein production result is “failed”.
